How the values were obtained:
[1] = target: T1, HLA-A*0201 (human); test: competition with 125I-labelled standard peptide 941.01 ([..]) on purified HLA, gel filtration
T1 construct: also called HLA-A2.1

[2] = target: HLA-A*0301 (human); test: inhibition of 125I-labelled standard peptide binding to purified HLA, gel filtration
[3] = target: HLA-A*1101 (human); test: as above
[4] = target: HLA-B*0702 (human); test: competition with 125I probe peptide, purified HLA
[5] = target: HLA-B*5101 (human); test: competition with 125I probe peptide, purified HLA
[6] = target: HLA-A*1101 (human); test: inhibition of 125I-labelled probe peptide binding to purified HLA-A*1101, gel filtration
[7] = target: HLA-A*0301 (human); test: inhibition of 125I probe peptide binding to purified HLA
[8] = target: HLA-A*6801 (human); test: as above
[9] = target: HLA-B*0702 (human); test: competition vs 125I-labeled standard peptide, purified HLA
[10] = target: HLA-B*5101 (human); test: as above
[11] = target: HLA-B*5401 (human); test: as above
[12] = target: T2, HLA-A*0301 (purified HLA class I molecule) (human); test: inhibition of 125I probe peptide binding to purified HLA; ratio to standard peptide
T2 construct: also called A3

[13] = target: HLA-A*1101 (purified HLA class I molecule) (human); test: as above

GATLERPKTL (Synthetic peptide) [HER2/neu A02 supermotif peptide, position 1164, 10 amino acids] was tested, and the relative binding ratio [1] was 0.0002 ratio (IC50 of standard peptide / IC50 of test peptide).

VARCPSGVK (Synthetic A3 supermotif peptide) [HER2/neu peptide, position 597, 9 amino acids] was tested, and the relative binding ratio [2] was 0.01 ratio (IC50 of standard peptide / IC50 of test peptide) and the relative binding ratio [3] was -0.0002 ratio (IC50 of standard peptide / IC50 of test peptide).

With GVLIQRNPQL (Synthetic peptide) [HER2/neu A02 supermotif peptide, position 152, 10 amino acids] the relative binding ratio [1] was 0.0036 ratio (IC50 of standard peptide / IC50 of test peptide).

In the case of GILLVVVLGV (Synthetic peptide) [HER2/neu A02 supermotif peptide, position 660, 10 amino acids], the relative binding ratio [1] is reported as 0.0007 ratio (IC50 of standard peptide / IC50 of test peptide).

In the case of HVKITDFGL (Synthetic peptide) [HER2/neu A02 supermotif peptide, position 858, 9 amino acids], the relative binding ratio [1] is reported as 0.0002 ratio (IC50 of standard peptide / IC50 of test peptide).

With GLGISWLGL (Synthetic peptide) [HER2/neu A02 supermotif peptide, position 447, 9 amino acids] the relative binding ratio [1] was 0.0018 ratio (IC50 of standard peptide / IC50 of test peptide).

With QALLHTANR (Synthetic A3 supermotif peptide) [HER2/neu peptide, position 491, 9 amino acids] the relative binding ratio [2] was 0.0046 ratio (IC50 of standard peptide / IC50 of test peptide) and the relative binding ratio [3] was 0.001 ratio (IC50 of standard peptide / IC50 of test peptide).

With GISWLGLRSL (Synthetic peptide) [HER2/neu A02 supermotif peptide, position 449, 10 amino acids] the relative binding ratio [1] was 0.0003 ratio (IC50 of standard peptide / IC50 of test peptide).

For GIPAREIPDL (Synthetic peptide) [HER2/neu A02 supermotif peptide, position 925, 10 amino acids], the relative binding ratio [1] was 0.0001 ratio (IC50 of standard peptide / IC50 of test peptide).

GAVENPEYL (Synthetic peptide) [HER2/neu A02 supermotif peptide, position 1189, 9 amino acids] was tested, and the relative binding ratio [1] was 0.0002 ratio (IC50 of standard peptide / IC50 of test peptide).

B1: Her2/neu.605 (peptide)
peptide: KPDLSYMPI
notes: native HER2/neu peptide from position 605
Work on B1 yielded an IC50 [4] of 76 nM and an IC50 [5] of 2500 nM.

For TVPWDQLFR (Synthetic A3 supermotif peptide) [HER2/neu peptide, position 479, 9 amino acids], the relative binding ratio [2] was 0.0006 ratio (IC50 of standard peptide / IC50 of test peptide) and the relative binding ratio [3] was 0.0072 ratio (IC50 of standard peptide / IC50 of test peptide).

With GSGAFGTVY [HER2/neu peptide, position 727, 9 amino acids] the “relative binding ratio (IC50 of standard peptide / IC50 of test peptide)” value [6] was 0.0001 relative binding ratio.

For NIQEFAGCKK (Synthetic A3 supermotif peptide) [HER2/neu peptide, position 360, 10 amino acids], the relative binding ratio [2] was 0.0003 ratio (IC50 of standard peptide / IC50 of test peptide) and the relative binding ratio [3] was 0.0056 ratio (IC50 of standard peptide / IC50 of test peptide).

With NIQEFAGCK (Synthetic A3 supermotif peptide) [HER2/neu peptide, position 360, 9 amino acids] the relative binding ratio [2] was 0.0002 ratio (IC50 of standard peptide / IC50 of test peptide) and the relative binding ratio [3] was 0.0036 ratio (IC50 of standard peptide / IC50 of test peptide).

With GMSYLEDVR [HER2/neu peptide, position 832, 9 amino acids] the “relative binding ratio (IC50 of standard peptide / IC50 of test peptide)” value [6] was 0.0002 relative binding ratio.

GLGMEHLREV (Synthetic peptide) [HER2/neu A02 supermotif peptide, position 344, 10 amino acids] was tested, and the relative binding ratio [1] was 0.0017 ratio (IC50 of standard peptide / IC50 of test peptide).

For HVVPWDQLFK (synthetic analog peptide) [Her2/neu.478.V2K10], the IC50 [7] was 180 nM and the IC50 [8] was 8.9 nM.

B2: Her2/neu.698.F1I9 (peptide)
peptide: FPLTPSGAI
notes: 9-mer analog of the HER2/neu peptide starting at position 698
B2 gave an IC50 [9] of 0.9 nM, an IC50 [10] of 9.2 nM and an IC50 [11] of 1.9 nM.

In the case of GMSYLEDVRL (Synthetic peptide) [HER2/neu A02 supermotif peptide, position 832, 10 amino acids], the relative binding ratio [1] is reported as 0.0017 ratio (IC50 of standard peptide / IC50 of test peptide).

PAGATLERPK (Synthetic A3 supermotif peptide) [HER2/neu peptide, position 1162, 10 amino acids] was tested, and the relative binding ratio [2] was -0.0002 ratio (IC50 of standard peptide / IC50 of test peptide) and the relative binding ratio [3] was -0.0002 ratio (IC50 of standard peptide / IC50 of test peptide).

In the case of ALTLIDTNR (also called Her2/neu.180 (9-mer)) [HER2/neu peptide, position 180, 9 amino acids], the relative binding ratio [12] is reported as 0.0004 ratio (IC50 standard / IC50 test) and the relative binding ratio [13] is reported as 0.0005 ratio (IC50 standard / IC50 test).

ALESILRRR (also called Her2/neu.890 (9-mer)) [HER2/neu peptide, position 890, 9 amino acids] was tested, and the relative binding ratio [12] was 0.0013 ratio (IC50 standard / IC50 test) and the relative binding ratio [13] was 0.0006 ratio (IC50 standard / IC50 test).

HADGGKVPI (Synthetic peptide) [HER2/neu A02 supermotif peptide, position 878, 9 amino acids] was tested, and the relative binding ratio [1] was 0.0002 ratio (IC50 of standard peptide / IC50 of test peptide).

IISAVVGILL (Synthetic peptide) [HER2/neu A02 supermotif peptide, position 654, 10 amino acids] was tested, and the relative binding ratio [1] was 0.012 ratio (IC50 of standard peptide / IC50 of test peptide).

With GVGSPYVSR [HER2/neu peptide, position 776, 9 amino acids] the “relative binding ratio (IC50 of standard peptide / IC50 of test peptide)” value [6] was 0.0066 relative binding ratio.

For GSGAFGTVYK [HER2/neu peptide, position 727, 10 amino acids], the “relative binding ratio (IC50 of standard peptide / IC50 of test peptide)” value [6] was 0.13 relative binding ratio.

For HVRENRGRL (Synthetic peptide) [HER2/neu A02 supermotif peptide, position 809, 9 amino acids], the relative binding ratio [1] was 0.0002 ratio (IC50 of standard peptide / IC50 of test peptide).
